Results published in paper PMC13137973 (2026).

Target: T1, Biotinylated human TNFR2 protein (human, UniProt P20333-1 23-257, biotin (commercial biotinylation kit))
T1 chain: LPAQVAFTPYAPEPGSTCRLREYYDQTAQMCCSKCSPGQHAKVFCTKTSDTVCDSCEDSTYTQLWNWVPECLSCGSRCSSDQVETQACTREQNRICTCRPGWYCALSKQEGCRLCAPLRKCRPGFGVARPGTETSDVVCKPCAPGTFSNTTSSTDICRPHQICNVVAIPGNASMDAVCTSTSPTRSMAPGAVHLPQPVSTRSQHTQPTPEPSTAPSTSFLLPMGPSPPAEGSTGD
Experiment: BLI

B1: human immunodeficiency virus 1 (HIV-1) (group M, subtype B, Isolate MN) gp120 Protein (natural protein)
chain: not shown
koff: 0.00623 s⁻¹
